Bridges are numbered along the chain shown (N, C = ends). Where no end group is shown, it is not given here. [ ]: non-standard residue; d: D form.
Tests used:
FcεR1α (Homo sapiens) = test: Surface plasmon resonance (BIAcore biosensor) inhibition of IgE-Fc binding to immobilized soluble FcεR1α; details: peptide 2.5 mM; IgE-Fc 5 nM, association monitored for 6 minutes, 24° C.
Procedure: The kinetics of binding of IgE Fc to soluble FcεR1α were determined using a BIAcore biosensor (Pharmacia Biosensor AB, Uppsala, Sweden). The FcεR1α was immobilized via primary amine groups to a carboxymethylated dextran-coated CM5 sensor chip, at a concentration of 85 μg/ml in 10mM sodium acetate buffer pH 4.5, using N-hydroxy-succinimide and N-ethyl-N'-(3-[…])-carbodiimide.Free sites were blocked with 1M ethanolamine-hydrochloride pH 8.5.
The association of IgE-Fc at a concentration of 5nM was monitored for 6 minutes in the presence and absence of a derivative of the D amino acid peptide #1 at various concentrations (at 24° C.) The derivative of D amino acid peptide #1 is identical to D amino acid #1, which is described in Example 3, except it is biotinylated.

labelled myeloma IgE = test: competition: peptide titrated against 5 nM iodinated myeloma IgE binding to transfected CHO cells, gamma counting

FcεR1α (Homo sapiens), sequence (P01854 104-428 isoform P01854-1 limits assumed): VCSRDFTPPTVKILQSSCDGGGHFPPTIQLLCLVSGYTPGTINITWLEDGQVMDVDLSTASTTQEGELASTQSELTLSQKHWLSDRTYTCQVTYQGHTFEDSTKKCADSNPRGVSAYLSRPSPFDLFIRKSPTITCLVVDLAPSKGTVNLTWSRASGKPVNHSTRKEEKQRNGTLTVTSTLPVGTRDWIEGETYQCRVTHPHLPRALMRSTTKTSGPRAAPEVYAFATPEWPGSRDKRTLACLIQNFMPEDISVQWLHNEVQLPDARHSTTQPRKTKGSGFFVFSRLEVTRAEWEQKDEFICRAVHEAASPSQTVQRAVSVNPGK

Row | inhibition of IgE-Fc binding (FcεR1α (Homo sapiens)) | IC50 (labelled myeloma IgE) [µM] | Molecule
1 | virtually complete inhibition |  | derivative of D amino acid peptide #1: identical to D amino acid peptide #1, which is described in Example 3, except it is biotinylated (CIYYKDGEALKY[dC]; disulfide 1-13; also: biotinylated (site not given here))
2 |  | 5.14 | CIYYKDGEALKY[dC] (disulfide 1-13) [D amino acid peptide #1]

Source: patent US5962634A, “IgE antagonists” (Thomas Jefferson University, priority 1997, dated 1999)
